Measurements taken from patent US20230242657A1.

Legend:
[1] = molecular target: human OX40 on the cell surface (activated human T cells; Jurkat-OX40-NF-kB-Luc cells overexpressing human OX40) (human) (UniProt P43489); experiment: cell-based or functional assay
[2] = molecular target: recombinant OX40-Fc protein (R & D, Cat 3388-OX) (human) (UniProt P43489); experiment: blocking ELISA: plate-coated OX40-Fc, serially diluted antibody, then OX40L at 50 ng/ml, bound OX40L detected
Sequence of recombinant OX40-Fc protein (R & D, Cat 3388-OX) (human) (P43489 29-214): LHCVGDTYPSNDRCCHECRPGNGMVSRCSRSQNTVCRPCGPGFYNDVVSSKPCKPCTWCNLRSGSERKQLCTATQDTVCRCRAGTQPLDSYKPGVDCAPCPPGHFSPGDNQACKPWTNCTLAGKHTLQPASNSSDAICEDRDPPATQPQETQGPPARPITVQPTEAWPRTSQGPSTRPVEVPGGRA

Sequence of human OX40 on the cell surface (activated human T cells; Jurkat-OX40-NF-kB-Luc cells overexpressing human OX40) (human) (P43489 29-277): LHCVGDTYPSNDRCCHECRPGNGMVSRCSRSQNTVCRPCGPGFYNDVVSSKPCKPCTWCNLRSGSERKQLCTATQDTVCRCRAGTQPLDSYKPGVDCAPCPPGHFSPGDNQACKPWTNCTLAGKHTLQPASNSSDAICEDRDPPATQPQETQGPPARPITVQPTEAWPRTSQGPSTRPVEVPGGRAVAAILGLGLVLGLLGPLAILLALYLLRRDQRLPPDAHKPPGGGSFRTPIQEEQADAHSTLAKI

IC50 of blocking the OX40L-mediated T cell activation (IFNy secretion) [1]: 1.1 nM | IC50 [2]: 0.3 nM | maximum inhibition rate [2]: 50%
B1: GBR830 (reference OX40 antagonist antibody) (antibody, INN chains, looked up, V domains shown)
VH: QVTLKESGPALVKPTQTLTLTCSFSGFSLSTSGMGVGWIRQPPGKALEWIAHIWWDDDKYYNTALKTRLTISKDTSKNQVVLTMTNMDPVDTATYYCARIDWDGFAYWGQGTLVTVSS
VL: EIVLTQSPATLSLSPGERATLSCRASSSVSYMHWYQQKPGQAPRPWIYATSNRATGIPARFSGSGSGTDYTLTISSLEPEDFAVYYCQQWSSNPWTFGQGTKVEIK
